Where a SMILES comes first, the peptide text is derived from it. The star is where a group is joined. X1 = COc1ccc2c3c1O[C@H]1C(O*)=CC[C@H]4[C@@H](C2)N(C)CC[C@]314
Legend:
[1] = biological target: T1, human recombinant norepinephrine transport binding sites (Homo sapiens, UniProt P23975); experiment: Radioligand binding, norepinephrine transporter; details: 10^−9 to 10^−5 M
T1 construct: purchased Novascreen, Hanover, Md

[2] = Oral bioavailability in rats at escalating doses, LC/MS/MS; details: rat
[3] = Kitchen tests: release of amphetamine by water, acid, base and heat; details: heated to boiling for 20-60 minutes
[4] = Intravenous bioavailability of hydrocodone conjugates in rats, LC/MS/MS; details: intravenous
[5] = male, Sprague-Dawley, in vivo, po, 3 mg/kg
[6] = male, Sprague-Dawley, in vivo, po, 6 mg/kg
[7] = male, Sprague-Dawley, in vivo, po, 12 mg/kg
[8] = male, Sprague-Dawley, in vivo, po, 60 mg/kg
[9] = 1 mg/kg dose, hydrocodone plus hydromorphone
[10] = 1 mg/kg dose, relative to hydrocodone bitartrate
[11] = 1 mg/kg hydrocodone base content
[12] = 1 mg/kg hydrocodone base content, 0 h
[13] = 1 mg/kg hydrocodone base content, 0.1 h
[14] = 1 mg/kg hydrocodone base content, 0.5 h
[15] = 1 mg/kg hydrocodone base content, 1.0 h
[16] = 1 mg/kg hydrocodone base content, 2.0 h
[17] = 1 mg/kg hydrocodone base content, 4.0 h

T1 sequence (P23975 whole entry): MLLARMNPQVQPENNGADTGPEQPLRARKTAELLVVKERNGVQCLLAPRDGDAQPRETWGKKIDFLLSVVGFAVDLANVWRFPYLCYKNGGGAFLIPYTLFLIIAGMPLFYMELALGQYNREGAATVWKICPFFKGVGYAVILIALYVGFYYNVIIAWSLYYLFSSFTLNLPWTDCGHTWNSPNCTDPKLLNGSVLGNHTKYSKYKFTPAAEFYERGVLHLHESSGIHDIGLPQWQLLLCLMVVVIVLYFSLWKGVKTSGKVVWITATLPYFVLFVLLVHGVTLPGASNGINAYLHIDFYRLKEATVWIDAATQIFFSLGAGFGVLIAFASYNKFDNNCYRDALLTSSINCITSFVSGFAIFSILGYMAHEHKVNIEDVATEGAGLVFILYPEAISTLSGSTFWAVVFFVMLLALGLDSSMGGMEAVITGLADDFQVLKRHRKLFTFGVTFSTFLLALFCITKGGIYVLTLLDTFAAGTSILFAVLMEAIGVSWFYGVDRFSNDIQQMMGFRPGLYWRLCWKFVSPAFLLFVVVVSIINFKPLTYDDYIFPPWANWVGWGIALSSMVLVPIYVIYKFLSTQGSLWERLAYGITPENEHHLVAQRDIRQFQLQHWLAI

Structure (SMILES): CC(Cc1ccccc1)NC(=O)C(N)CCCCN [L-lysine-d-amphetamine, 2,6-diaminohexanoic acid-(1-methyl-2-phenylethyl)-amide]
- Specific binding [1]: did not bind
- Tmax ([2]; male, Sprague-Dawley, in vivo, po): 0.25 to 3 h
- AUC(0-t) [2, 5]: 330 ng·h/mL
- Cmax [2, 5]: 135 ng/mL
- Tmax [2, 5]: 1.5 h
- AUC(0-t) [2, 6]: 1160 ng·h/mL
- Cmax [2, 6]: 677 ng/mL
- Tmax [2, 6]: 0.25 h
- AUC(0-inf) [2, 7]: 4510 ng·h/mL
- AUC(0-t) [2, 7]: 4240 ng·h/mL
- Cmax [2, 7]: 856 ng/mL
- Tmax [2, 7]: 1 h
- AUC(0-t) [2, 8]: 8230 ng·h/mL
- Cmax [2, 8]: 1870 ng/mL
- Tmax [2, 8]: 3 h
- Tmax ([2]; male, Sprague-Dawley, in vivo, po, […]): 0.25 h
- Cmax of d-amphetamine compared to d-amphetamine sulfate ([2]; oral, 1.5 to 6 mg/kg): reduced by approximately half
- amphetamine detected after treatment: Baking Powder [3]: 0%
- amphetamine detected after treatment: Baking Soda [3]: 0%
- amphetamine detected after treatment: Tap Water [3]: 0%
- amphetamine detected after treatment: Vinegar [3]: 0%

Structure (SMILES): CC[C@H](C)[C@H](NC(=O)[C@H](Cc1ccccc1)NC(=O)[C@H](Cc1ccccc1)NC(=O)[C@H](Cc1ccc(O)cc1)NC(=O)[C@@H](N)Cc1ccc(O)cc1)C(=O)OC1=CC[C@H]2[C@H]3Cc4ccc(OC)c5c4[C@@]2(CCN3C)[C@H]1O5 [YYFFI[SEQ ID NO: 8]-HC, Tyr-Tyr-Phe-Phe-Ile[SEQ ID NO: 8]-(6-O)-Hydrocodone] (H-YYFFI-X1)
- hydrocodone plus hydromorphone concentration ([4]; 1 mg/kg dose, 5 Minutes): 171 ng/mL
- hydrocodone plus hydromorphone concentration ([4]; 1 mg/kg dose, 15 Minutes): 28 ng/mL
- hydrocodone plus hydromorphone concentration ([4]; 1 mg/kg dose, 30 Minutes): 22 ng/mL
- hydrocodone plus hydromorphone concentration ([4]; 1 mg/kg dose, 60 Minutes): 18 ng/mL
- AUC (ng/ml h) 0-1 h [4, 9]: 40 ng·h/mL
- Cmax [4, 9]: 171 ng/mL
- Percent HC (AUC) [4, 10]: 29%
- Percent HC (Cmax) [4, 10]: 72%
- HC (hydrocodone) AUC, Percent relative to hydrocodone bitartrate [4, 11]: 19%
- HC (hydrocodone) Cmax [4, 11]: 8.7 ng/mL
- HC (hydrocodone) Cmax, Percent relative to hydrocodone bitartrate [4, 11]: 20.2%
- HC + HM AUC, Percent relative to hydrocodone bitartrate [4, 11]: 36%
- HC + HM Cmax [4, 11]: 22.6 ng/mL
- HC + HM Cmax, Percent relative to hydrocodone bitartrate [4, 11]: 10.8%
- HM (hydromorphone) AUC, Percent relative to hydrocodone bitartrate [4, 11]: 33%
- HM (hydromorphone) Cmax [4, 11]: 31.3 ng/mL
- HM (hydromorphone) Cmax, Percent relative to hydrocodone bitartrate [4, 11]: 12.4%
- Mean HC (hydrocodone) concentration [4, 12]: 0 ng/mL
- Mean HC + HM concentration [4, 12]: 0 ng/mL
- Mean HM (hydromorphone) concentration [4, 12]: 0 ng/mL
- Mean HC (hydrocodone) concentration [4, 13]: 8.75 ng/mL
- Mean HC + HM concentration [4, 13]: 22.6 ng/mL
- Mean HM (hydromorphone) concentration [4, 13]: 31.3 ng/mL
- Mean HC (hydrocodone) concentration [4, 14]: 1.44 ng/mL
- Mean HC + HM concentration [4, 14]: 13.5 ng/mL
- Mean HM (hydromorphone) concentration [4, 14]: 14.9 ng/mL
- Mean HC (hydrocodone) concentration [4, 15]: 0.92 ng/mL
- Mean HC + HM concentration [4, 15]: 13.0 ng/mL
- Mean HM (hydromorphone) concentration [4, 15]: 13.9 ng/mL
- Mean HC (hydrocodone) concentration [4, 16]: 0.41 ng/mL
- Mean HC + HM concentration [4, 16]: 13.1 ng/mL
- Mean HM (hydromorphone) concentration [4, 16]: 13.5 ng/mL
- Mean HC (hydrocodone) concentration [4, 17]: 0.33 ng/mL
- Mean HC + HM concentration [4, 17]: 8.5 ng/mL
- Mean HM (hydromorphone) concentration [4, 17]: 8.8 ng/mL

— patent US7375083B2, “Pharmaceutical compositions for prevention of overdose or abuse” (Shire LLC, priority 2003, dated 2008)
